Assay results published in patent US20230220057A1 (STAIDSON BEIJING BIOPHARMACEUTICALS, published 2023).

Molecular target: recombinantly produced human-NGF (human, UniProt P01138 122-241, limits assumed)
Assay: ELISA, human NGF coated, IgG titrated
Method: NGF binding ELISA assay: In human NGF binding ELISA, Corning 3366 high binding 96 well plates were coated with recombinantly produced human-NGF at 1 μg per ml, 50 μl/well in 1×PBS, and incubated overnight at 4° C. The plates were washed and blocked with 250 μl of 1×PBS/1% BSA at least 30 minutes at room temperature. 50 μl of culture supernatants, after 1:1 diluted by the PBS/BSA diluent, or the purified antibodies diluted serially from a certain concentration with the diluent, were added per well, and incubated at 37° C. for 2 hours. After washing, a secondary antibody, goat anti-human IgG Fc AP (Southern biotech) was applied at a dilution of 1:3000 in PBS/BSA. The plates were incubated for 1 hour at RT and washed. After adding the PNPP substrate, the ODs at 405 nm were read.
NGF binding ELISA assay: NGF binding ELISA assay was performed as described in Example 1.

Chain of recombinantly produced human-NGF (P01138 122-241 limits assumed): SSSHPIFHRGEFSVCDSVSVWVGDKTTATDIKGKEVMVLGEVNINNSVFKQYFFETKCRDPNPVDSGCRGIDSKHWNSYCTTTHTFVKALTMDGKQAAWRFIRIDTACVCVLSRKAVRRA

Binder | EC50 [ng/mL]
Ab1 (antibody, human IgG1, V domains shown, Lead antibody; also called Abl) VH: EVQLVQSGAEVKKPGATVKISCKVSGYTFITYWISWVQQAPGKGLEWMGAIDPSDSDARYSPSFQGRVTITADTSTDTAYMELSSLRSEDTAVYYCAKSDPGYSGYSLLYGFDSWGQGTLVTVSS VL: DIVMTQTPLSSPVTLGQPASISCRSSQSLVQRNGNTYLSWLQQRPGQPPRLLIYQVSNRYSGVPDRFSGSGAGTDFTLKISRVEAEDVGVYYCGQGAHLPLTFGQGTKVEIK | 0.0185
Ab12 (antibody, human IgG1, V domains shown) VH: EVQLVQSGAEVKKPGATVKISCKVSGYSFITYWISWVQQAPGKGLEWMGAIDPSDSDARYSPSFQGRVTITADTSTDTAYMELSSLRSEDTAVYYCAKSDPGYSGYSLLYGFDSWGQGTLVTVSS VL: DIVMTQTPLSSPVTLGQPASISCRSSQSLVQRNGNTYLSWYQQRPGQPPRLLIYQVSNRYSGVPDRFSGSGAGTDFTLKISRVEAEDVGVYYCGQGAHLPLTFGQGTKVEIK | 0.0365
Ab8 (antibody, human IgG1, V domains shown) VH: EVQLVQSGAEVKKPGATVKISCKVSGYTFITYWISWVQQAPGKGLEWMGAIDPSDSDARYSPSFQGRVTITADTSTDTAYMELSSLRSEDTAVYYCAKSDPGYSGYSLLYGFDSWGQGTLVTVSS VL: DIVMTQSPLSLPVTLGQPASISCRSSQSLVQRNGNTYLSWYQQRPGQSPRLLIYQVSNRYSGVPDRFSGSGSGTDFTLKISRVEAEDVGVYYCGQGAHLPLTFGQGTKVEIK | 0.0205
Ab22 (antibody, human IgG1, V domains shown) VH: EVQLVQSGAEVKKPGATVKISCKVSGYSFITYWISWVQQAPGKGLEWMGAIDPSDSDARYSPSFQGRVTITADKSTDTAYMELSSLRSEDTAVYYCAKSDPGYSGYSLLYGFDSWGQGTLVTVSS VL: DIVMTQTPLSSPVTLGQPASISCRSSQSLVQRNGNTYLSWYQQRPGQPPRLLIYQVSNRYSGVPDRFSGSGAGTDFTLKISRVEAEDVGVYYCGQGAHLPLTFGQGTKVEIK | 0.0382
Ab20 (antibody, human IgG1, V domains shown) VH: EVQLVQSGAEVKKPGATVKISCKVSGYSFITYWISWVQQAPGKGLEWMGAIDPSDSDARYSPSFQGRVTITADTSTDTAYMELSSLRSEDTAVYYCAKSDPGYSGYSLLYGFDSWGQGTLVTVSS VL: DIVMTQSPLSLPVTLGQPASISCRSSQSLVQRNGNTYLSWFQQRPGQPPRLLIYQVSNRYSGVPDRFSGSGSGTDFTLKISRVEAEDVGVYYCGQGAHLPLTFGQGTKVEIK | 0.0215
Ab23 (antibody, human IgG1, V domains shown) VH: EVQLVQSGAEVKKPGATVKISCKVSGYSFITYWISWVQQAPGKGLEWMGAIDPSDSDARYSPSFQGRVTITADKSTDTAYMELSSLRSEDTAVYYCAKSDPGYSGYSLLYGFDSWGQGTLVTVSS VL: DVVMTQSPLSLPVTLGQPASISCRSSQSLVQRNGNTYLSWFQQRPGQSPRLLIYQVSNRYSGVPDRFSGSGSGTDFTLKISRVEAEDVGVYYCGQGAHLPLTFGQGTKVEIK | 0.0405
Ab3 (antibody, human IgG1, V domains shown) VH: EVQLVQSGAEVKKPGATVKISCKVSGYTFITYWISWVQQAPGKGLEWMGAIDPSDSDARYSPSFQGRVTITADTSTDTAYMELSSLRSEDTAVYYCAKSDPGYSGYSLLYGFDSWGQGTLVTVSS VL: DVVMTQSPLSLPVTLGQPASISCRSSQSLVQRNGNTYLSWFQQRPGQSPRLLIYQVSNRYSGVPDRFSGSGSGTDFTLKISRVEAEDVGVYYCGQGAHLPLTFGQGTKVEIK | 0.017
Ab24 (antibody, human IgG1, V domains shown) VH: EVQLVQSGAEVKKPGATVKISCKVSGYSFITYWISWVQQAPGKGLEWMGAIDPSDSDARYSPSFQGRVTITADKSTDTAYMELSSLRSEDTAVYYCAKSDPGYSGYSLLYGFDSWGQGTLVTVSS VL: DVVMTQSPLSLPVTLGQPASISCRSSQSLVQRNGNTYLSWYQQRPGQSPRLLIYQVSNRYSGVPDRFSGSGSGTDFTLKISRVEAEDVGVYYCGQGAHLPLTFGQGTKVEIK | 0.0399
Ab11 (antibody, human IgG1, V domains shown) VH: EVQLVQSGAEVKKPGATVKISCKVSGYSFITYWISWVQQAPGKGLEWMGAIDPSDSDARYSPSFQGRVTITADTSTDTAYMELSSLRSEDTAVYYCAKSDPGYSGYSLLYGFDSWGQGTLVTVSS VL: DIVMTQTPLSSPVTLGQPASISCRSSQSLVQRNGNTYLSWLQQRPGQPPRLLIYQVSNRYSGVPDRFSGSGAGTDFTLKISRVEAEDVGVYYCGQGAHLPLTFGQGTKVEIK | 0.032
Ab9 (antibody, human IgG1, V domains shown) VH: EVQLVQSGAEVKKPGATVKISCKVSGYTFITYWISWVQQAPGKGLEWMGAIDPSDSDARYSPSFQGRVTITADTSTDTAYMELSSLRSEDTAVYYCAKSDPGYSGYSLLYGFDSWGQGTLVTVSS VL: DIVMTQSPLSLPVTLGQPASISCRSSQSLVQRNGNTYLSWYQQRPGQPPRLLIYQVSNRYSGVPDRFSGSGSGTDFTLKISRVEAEDVGVYYCGQGAHLPLTFGQGTKVEIK | 0.0876
Ab7 (antibody, human IgG1, V domains shown) VH: EVQLVQSGAEVKKPGATVKISCKVSGYTFITYWISWVQQAPGKGLEWMGAIDPSDSDARYSPSFQGRVTITADTSTDTAYMELSSLRSEDTAVYYCAKSDPGYSGYSLLYGFDSWGQGTLVTVSS VL: DIVMTQSPLSLPVTLGQPASISCRSSQSLVQRNGNTYLSWFQQRPGQSPRLLIYQVSNRYSGVPDRFSGSGSGTDFTLKISRVEAEDVGVYYCGQGAHLPLTFGQGTKVEIK | 0.00988
Ab13 (antibody, human IgG1, V domains shown) VH: EVQLVQSGAEVKKPGATVKISCKVSGYSFITYWISWVQQAPGKGLEWMGAIDPSDSDARYSPSFQGRVTITADTSTDTAYMELSSLRSEDTAVYYCAKSDPGYSGYSLLYGFDSWGQGTLVTVSS VL: DVVMTQSPLSLPVTLGQPASISCRSSQSLVQRNGNTYLSWFQQRPGQSPRLLIYQVSNRYSGVPDRFSGSGSGTDFTLKISRVEAEDVGVYYCGQGAHLPLTFGQGTKVEIK | 0.043
Ab18 (antibody, human IgG1, V domains shown) VH: EVQLVQSGAEVKKPGATVKISCKVSGYSFITYWISWVQQAPGKGLEWMGAIDPSDSDARYSPSFQGRVTITADTSTDTAYMELSSLRSEDTAVYYCAKSDPGYSGYSLLYGFDSWGQGTLVTVSS VL: DIVMTQSPLSLPVTLGQPASISCRSSQSLVQRNGNTYLSWYQQRPGQSPRLLIYQVSNRYSGVPDRFSGSGSGTDFTLKISRVEAEDVGVYYCGQGAHLPLTFGQGTKVEIK | 0.0271
Ab2 (antibody, human IgG1, V domains shown) VH: EVQLVQSGAEVKKPGATVKISCKVSGYTFITYWISWVQQAPGKGLEWMGAIDPSDSDARYSPSFQGRVTITADTSTDTAYMELSSLRSEDTAVYYCAKSDPGYSGYSLLYGFDSWGQGTLVTVSS VL: DIVMTQTPLSSPVTLGQPASISCRSSQSLVQRNGNTYLSWYQQRPGQPPRLLIYQVSNRYSGVPDRFSGSGAGTDFTLKISRVEAEDVGVYYCGQGAHLPLTFGQGTKVEIK | 0.0197

More lines, now with the values ahead:

EC50 [ng/mL] | Binder
0.0324 | Ab19 (antibody, human IgG1, V domains shown) VH: EVQLVQSGAEVKKPGATVKISCKVSGYSFITYWISWVQQAPGKGLEWMGAIDPSDSDARYSPSFQGRVTITADTSTDTAYMELSSLRSEDTAVYYCAKSDPGYSGYSLLYGFDSWGQGTLVTVSS VL: DIVMTQSPLSLPVTLGQPASISCRSSQSLVQRNGNTYLSWYQQRPGQPPRLLIYQVSNRYSGVPDRFSGSGSGTDFTLKISRVEAEDVGVYYCGQGAHLPLTFGQGTKVEIK
0.0403 | Ab21 (antibody, human IgG1, V domains shown) VH: EVQLVQSGAEVKKPGATVKISCKVSGYSFITYWISWVQQAPGKGLEWMGAIDPSDSDARYSPSFQGRVTITADKSTDTAYMELSSLRSEDTAVYYCAKSDPGYSGYSLLYGFDSWGQGTLVTVSS VL: DIVMTQTPLSSPVTLGQPASISCRSSQSLVQRNGNTYLSWLQQRPGQPPRLLIYQVSNRYSGVPDRFSGSGAGTDFTLKISRVEAEDVGVYYCGQGAHLPLTFGQGTKVEIK
0.0351 | Ab14 (antibody, human IgG1, V domains shown) VH: EVQLVQSGAEVKKPGATVKISCKVSGYSFITYWISWVQQAPGKGLEWMGAIDPSDSDARYSPSFQGRVTITADTSTDTAYMELSSLRSEDTAVYYCAKSDPGYSGYSLLYGFDSWGQGTLVTVSS VL: DVVMTQSPLSLPVTLGQPASISCRSSQSLVQRNGNTYLSWYQQRPGQSPRLLIYQVSNRYSGVPDRFSGSGSGTDFTLKISRVEAEDVGVYYCGQGAHLPLTFGQGTKVEIK
0.046 | Ab15 (antibody, human IgG1, V domains shown) VH: EVQLVQSGAEVKKPGATVKISCKVSGYSFITYWISWVQQAPGKGLEWMGAIDPSDSDARYSPSFQGRVTITADTSTDTAYMELSSLRSEDTAVYYCAKSDPGYSGYSLLYGFDSWGQGTLVTVSS VL: DVVMTQSPLSLPVTLGQPASISCRSSQSLVQRNGNTYLSWYQQRPGQPPRLLIYQVSNRYSGVPDRFSGSGSGTDFTLKISRVEAEDVGVYYCGQGAHLPLTFGQGTKVEIK
0.0139 | Ab5 (antibody, human IgG1, V domains shown) VH: EVQLVQSGAEVKKPGATVKISCKVSGYTFITYWISWVQQAPGKGLEWMGAIDPSDSDARYSPSFQGRVTITADTSTDTAYMELSSLRSEDTAVYYCAKSDPGYSGYSLLYGFDSWGQGTLVTVSS VL: DVVMTQSPLSLPVTLGQPASISCRSSQSLVQRNGNTYLSWYQQRPGQPPRLLIYQVSNRYSGVPDRFSGSGSGTDFTLKISRVEAEDVGVYYCGQGAHLPLTFGQGTKVEIK
0.016 | Ab17 (antibody, human IgG1, V domains shown) VH: EVQLVQSGAEVKKPGATVKISCKVSGYSFITYWISWVQQAPGKGLEWMGAIDPSDSDARYSPSFQGRVTITADTSTDTAYMELSSLRSEDTAVYYCAKSDPGYSGYSLLYGFDSWGQGTLVTVSS VL: DIVMTQSPLSLPVTLGQPASISCRSSQSLVQRNGNTYLSWFQQRPGQSPRLLIYQVSNRYSGVPDRFSGSGSGTDFTLKISRVEAEDVGVYYCGQGAHLPLTFGQGTKVEIK
